Data from the supplement of paper PMC10065799, “High-throughput profiling of sequence recognition by tyrosine kinases and SH2 domains using bacterial peptide display” (eLife, 2023).

How the values were obtained:
Fyn = Fyn (UniProt P06241); assay: phosphorylation enrichment, bacterial display (enrichment ratio); higher = better substrate or ligand; peptides without Tyr show the background
Fer (mouse) = assay: as above
Fes = Fes (UniProt P07332); assay: as above
EPHB1 = EPHB1 (UniProt P54762); assay: as above
Hck = Hck (UniProt P08631); assay: as above
Sequence of Hck (P08631 whole entry, looked up): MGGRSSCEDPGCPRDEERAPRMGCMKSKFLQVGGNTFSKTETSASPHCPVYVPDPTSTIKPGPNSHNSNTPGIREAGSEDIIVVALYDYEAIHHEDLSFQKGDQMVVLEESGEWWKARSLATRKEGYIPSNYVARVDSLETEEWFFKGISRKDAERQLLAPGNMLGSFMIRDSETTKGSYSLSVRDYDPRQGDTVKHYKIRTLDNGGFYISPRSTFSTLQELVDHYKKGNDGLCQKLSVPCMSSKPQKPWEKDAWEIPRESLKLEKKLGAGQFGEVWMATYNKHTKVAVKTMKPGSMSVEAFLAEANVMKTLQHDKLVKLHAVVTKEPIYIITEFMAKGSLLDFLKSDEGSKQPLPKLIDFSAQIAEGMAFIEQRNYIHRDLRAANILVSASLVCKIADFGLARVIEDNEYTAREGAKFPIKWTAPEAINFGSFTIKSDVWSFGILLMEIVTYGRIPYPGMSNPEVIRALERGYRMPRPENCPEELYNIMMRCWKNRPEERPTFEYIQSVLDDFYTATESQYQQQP

FGFR3 = FGFR3 (UniProt P22607); assay: as above
c-Abl (mouse) = assay: as above
FGFR1 = FGFR1 (UniProt P11362); assay: as above
Sequence of FGFR1 (P11362 whole entry, looked up): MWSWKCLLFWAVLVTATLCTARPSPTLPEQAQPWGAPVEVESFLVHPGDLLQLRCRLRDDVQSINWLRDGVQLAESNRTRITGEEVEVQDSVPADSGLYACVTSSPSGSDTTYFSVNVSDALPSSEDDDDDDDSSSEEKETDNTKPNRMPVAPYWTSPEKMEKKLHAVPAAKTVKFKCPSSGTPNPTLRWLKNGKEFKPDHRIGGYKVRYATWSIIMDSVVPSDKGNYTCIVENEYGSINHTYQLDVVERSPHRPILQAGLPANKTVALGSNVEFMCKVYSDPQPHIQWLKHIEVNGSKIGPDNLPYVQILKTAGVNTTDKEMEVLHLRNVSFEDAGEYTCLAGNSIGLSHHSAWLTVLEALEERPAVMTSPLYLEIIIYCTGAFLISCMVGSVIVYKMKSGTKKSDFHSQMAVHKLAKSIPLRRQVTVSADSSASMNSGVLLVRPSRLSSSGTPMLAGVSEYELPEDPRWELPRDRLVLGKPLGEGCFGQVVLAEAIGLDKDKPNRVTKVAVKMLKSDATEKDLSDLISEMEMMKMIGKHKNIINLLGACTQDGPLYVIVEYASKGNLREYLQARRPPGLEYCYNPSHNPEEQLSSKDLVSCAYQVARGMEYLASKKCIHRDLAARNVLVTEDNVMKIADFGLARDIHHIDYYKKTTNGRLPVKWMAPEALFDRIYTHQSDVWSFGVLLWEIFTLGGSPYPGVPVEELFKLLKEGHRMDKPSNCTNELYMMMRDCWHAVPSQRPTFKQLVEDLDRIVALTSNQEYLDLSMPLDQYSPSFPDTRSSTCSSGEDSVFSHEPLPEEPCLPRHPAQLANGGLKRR

Jak2 = Jak2 (UniProt O60674); assay: as above
AncSZ = assay: as above
c-Src = assay: as above
MERTK = MERTK (UniProt Q12866); assay: as above
Sequence of MERTK (Q12866 whole entry, looked up): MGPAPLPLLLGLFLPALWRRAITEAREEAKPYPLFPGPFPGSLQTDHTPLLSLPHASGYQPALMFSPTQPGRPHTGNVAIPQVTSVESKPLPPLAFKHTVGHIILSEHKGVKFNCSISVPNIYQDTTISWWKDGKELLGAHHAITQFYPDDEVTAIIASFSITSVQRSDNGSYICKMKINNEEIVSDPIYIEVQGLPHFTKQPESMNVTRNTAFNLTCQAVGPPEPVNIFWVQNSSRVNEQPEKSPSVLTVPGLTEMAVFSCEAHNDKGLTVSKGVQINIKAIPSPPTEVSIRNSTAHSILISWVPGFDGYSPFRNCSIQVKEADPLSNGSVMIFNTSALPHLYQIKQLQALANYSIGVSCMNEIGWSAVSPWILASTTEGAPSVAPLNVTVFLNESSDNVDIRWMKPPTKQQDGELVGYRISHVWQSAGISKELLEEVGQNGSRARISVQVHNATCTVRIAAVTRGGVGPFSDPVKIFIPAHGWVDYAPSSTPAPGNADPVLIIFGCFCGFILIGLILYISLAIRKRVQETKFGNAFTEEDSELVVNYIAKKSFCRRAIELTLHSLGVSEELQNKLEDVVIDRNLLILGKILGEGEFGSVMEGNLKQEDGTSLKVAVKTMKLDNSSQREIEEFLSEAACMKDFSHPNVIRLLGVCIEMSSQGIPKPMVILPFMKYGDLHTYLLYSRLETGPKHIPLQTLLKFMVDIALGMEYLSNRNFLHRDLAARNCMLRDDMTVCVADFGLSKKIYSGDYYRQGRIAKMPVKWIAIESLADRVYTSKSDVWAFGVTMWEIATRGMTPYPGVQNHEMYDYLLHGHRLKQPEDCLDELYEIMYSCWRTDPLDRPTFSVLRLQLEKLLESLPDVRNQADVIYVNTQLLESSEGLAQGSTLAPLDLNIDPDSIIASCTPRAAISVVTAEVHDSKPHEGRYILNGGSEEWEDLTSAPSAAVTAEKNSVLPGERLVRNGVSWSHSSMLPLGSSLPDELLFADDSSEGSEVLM

EPHB2 = EPHB2 (UniProt P29323); assay: as above
Sequence of EPHB2 (P29323 whole entry, looked up): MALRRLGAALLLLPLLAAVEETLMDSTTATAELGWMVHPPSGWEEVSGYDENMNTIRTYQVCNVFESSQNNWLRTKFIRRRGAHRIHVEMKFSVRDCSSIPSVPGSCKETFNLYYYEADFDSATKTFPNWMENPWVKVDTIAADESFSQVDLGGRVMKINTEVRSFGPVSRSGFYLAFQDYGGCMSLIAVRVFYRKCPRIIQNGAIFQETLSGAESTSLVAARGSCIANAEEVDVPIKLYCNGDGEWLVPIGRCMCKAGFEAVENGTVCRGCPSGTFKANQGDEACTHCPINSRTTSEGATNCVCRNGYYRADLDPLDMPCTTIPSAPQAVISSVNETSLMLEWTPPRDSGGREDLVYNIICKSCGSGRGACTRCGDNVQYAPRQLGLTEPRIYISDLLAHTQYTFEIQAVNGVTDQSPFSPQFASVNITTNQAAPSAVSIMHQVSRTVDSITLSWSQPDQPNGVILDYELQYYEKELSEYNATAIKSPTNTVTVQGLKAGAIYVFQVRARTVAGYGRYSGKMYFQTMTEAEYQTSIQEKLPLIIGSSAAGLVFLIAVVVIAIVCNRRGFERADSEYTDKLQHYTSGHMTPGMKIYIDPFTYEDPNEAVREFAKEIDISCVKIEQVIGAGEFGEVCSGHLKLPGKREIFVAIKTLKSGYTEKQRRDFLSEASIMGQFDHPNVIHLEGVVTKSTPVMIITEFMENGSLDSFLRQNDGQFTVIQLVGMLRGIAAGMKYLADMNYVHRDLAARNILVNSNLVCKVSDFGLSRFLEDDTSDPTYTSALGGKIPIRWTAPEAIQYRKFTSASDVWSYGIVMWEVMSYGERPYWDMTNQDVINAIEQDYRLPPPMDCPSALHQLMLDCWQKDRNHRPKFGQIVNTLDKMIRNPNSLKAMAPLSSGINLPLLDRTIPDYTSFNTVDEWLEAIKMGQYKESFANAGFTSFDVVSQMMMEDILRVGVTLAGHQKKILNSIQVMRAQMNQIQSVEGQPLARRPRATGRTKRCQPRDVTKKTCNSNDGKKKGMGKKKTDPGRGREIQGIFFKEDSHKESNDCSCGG

c-Src SH2 = assay: SH2 binding enrichment of the phosphorylated peptide, bacterial display (enrichment ratio); higher = better substrate or ligand; peptides without Tyr show the background
Grb2 SH2 = Grb2 SH2 (UniProt P62993); assay: as above
Sequence of Grb2 SH2 (P62993 whole entry, looked up): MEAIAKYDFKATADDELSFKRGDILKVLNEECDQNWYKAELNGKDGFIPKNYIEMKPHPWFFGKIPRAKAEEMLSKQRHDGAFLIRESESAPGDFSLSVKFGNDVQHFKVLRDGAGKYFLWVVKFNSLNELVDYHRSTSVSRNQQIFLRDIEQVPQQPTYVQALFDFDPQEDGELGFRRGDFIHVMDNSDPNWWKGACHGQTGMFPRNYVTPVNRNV

SHP2-C SH2 = assay: as above
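Throughout, for SH2 binding enrichment of the phosphorylated peptide, bacterial display: peptide library displayed on the E. coli surface as eCPX fusions, selected cells deep-sequenced, score is each peptide's frequency after selection divided by its frequency in the input.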
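Throughout, for phosphorylation enrichment, bacterial display: 11-residue human phosphosite peptides and single-mutation variants displayed on the E. coli surface, counted by deep sequencing, each peptide's frequency after selection divided by its frequency in the unselected input library; frequency after pTyr selection over input frequency; kinase dosed for 20-30% of maximal phosphorylation in three min.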

Sequence of Fyn (P06241 whole entry, looked up): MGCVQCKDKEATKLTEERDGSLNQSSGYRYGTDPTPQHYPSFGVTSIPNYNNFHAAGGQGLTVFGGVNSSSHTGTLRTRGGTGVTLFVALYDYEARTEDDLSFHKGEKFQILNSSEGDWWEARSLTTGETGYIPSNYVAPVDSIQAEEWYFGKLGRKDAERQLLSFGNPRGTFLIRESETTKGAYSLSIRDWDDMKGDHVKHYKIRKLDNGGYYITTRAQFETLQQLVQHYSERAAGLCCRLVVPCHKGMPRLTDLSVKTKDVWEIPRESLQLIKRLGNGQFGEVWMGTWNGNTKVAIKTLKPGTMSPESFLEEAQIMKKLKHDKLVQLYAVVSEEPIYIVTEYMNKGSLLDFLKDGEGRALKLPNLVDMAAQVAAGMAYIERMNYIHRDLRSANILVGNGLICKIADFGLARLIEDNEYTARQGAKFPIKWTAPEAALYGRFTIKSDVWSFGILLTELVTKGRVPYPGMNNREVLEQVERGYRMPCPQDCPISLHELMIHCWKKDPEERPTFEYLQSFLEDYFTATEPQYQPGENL
Sequence of Fes (P07332 whole entry, looked up): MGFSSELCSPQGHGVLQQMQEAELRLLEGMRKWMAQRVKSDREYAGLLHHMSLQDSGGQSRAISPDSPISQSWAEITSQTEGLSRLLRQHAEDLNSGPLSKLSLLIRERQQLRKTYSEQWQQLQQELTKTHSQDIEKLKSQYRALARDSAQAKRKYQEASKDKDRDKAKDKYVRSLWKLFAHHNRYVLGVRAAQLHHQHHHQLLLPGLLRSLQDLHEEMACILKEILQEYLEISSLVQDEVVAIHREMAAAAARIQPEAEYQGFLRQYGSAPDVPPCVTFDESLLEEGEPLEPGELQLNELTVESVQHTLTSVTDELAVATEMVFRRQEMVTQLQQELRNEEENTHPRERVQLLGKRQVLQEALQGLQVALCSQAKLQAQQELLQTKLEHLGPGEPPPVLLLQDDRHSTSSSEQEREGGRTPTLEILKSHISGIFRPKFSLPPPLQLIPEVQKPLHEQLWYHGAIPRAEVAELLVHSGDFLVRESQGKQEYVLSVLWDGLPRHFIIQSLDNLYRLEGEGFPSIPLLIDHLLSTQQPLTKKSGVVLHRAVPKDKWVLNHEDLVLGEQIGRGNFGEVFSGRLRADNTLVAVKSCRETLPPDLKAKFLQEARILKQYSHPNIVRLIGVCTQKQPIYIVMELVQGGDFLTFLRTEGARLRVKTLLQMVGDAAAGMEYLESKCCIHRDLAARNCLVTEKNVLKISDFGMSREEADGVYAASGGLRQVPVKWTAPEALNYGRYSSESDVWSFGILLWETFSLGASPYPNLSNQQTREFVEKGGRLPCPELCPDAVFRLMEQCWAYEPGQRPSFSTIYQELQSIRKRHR

Sequence | phosphorylation enrichment (Fyn) | phosphorylation enrichment (Fer (mouse)) | phosphorylation enrichment (Fes) | phosphorylation enrichment (EPHB1) | phosphorylation enrichment (Hck) | phosphorylation enrichment (FGFR3) | phosphorylation enrichment (c-Abl (mouse)) | phosphorylation enrichment (FGFR1) | phosphorylation enrichment (Jak2) | phosphorylation enrichment (AncSZ) | phosphorylation enrichment (c-Src) | phosphorylation enrichment (MERTK) | phosphorylation enrichment (EPHB2) | SH2 binding enrichment (c-Src SH2) | SH2 binding enrichment (Grb2 SH2) | SH2 binding enrichment (SHP2-C SH2)
LANNEYYFRVC | 0.743 | 0.62 | 1.27 | 0.682 | 0.794 | 3.11 | 0.573 | 3.72 | 1.51 | 1.6 | 0.516 | 0.823 | 0.993 | 0.42 | 0.539 | 0.562
FSVDSYDSSVR [KCNQ1_Y461_G460S] | 0.474 | 0.498 | 1.39 | 0.451 | 0.47 | 0.548 | 0.523 | 0.44 | 0.693 | 0.734 | 0.474 | 0.406 | 0.87 | 0.718 | 1.02 | 0.865
RLAKTYETTLK [ALB_Y377_E382K] | 0.82 | 0.406 | 0.848 | 1 | 0.459 | 0.463 | 1.65 | 0.553 | 0.607 | 0.768 | 0.817 | 0.695 | 0.681 | 0.557 | 0.809 | 0.556
VSGIPYGQPKQ [NEU1_Y251] | 0.339 | 0.44 | 0.57 | 0.349 | 0.419 | 0.437 | 0.422 | 0.415 | 0.522 | 0.494 | 0.434 | 0.336 | 0.323 | 0.331 | 0.94 | 1.22
GDDLSYGDVPP [IRS1_Y151_E147D] | 0.426 | 0.61 | 1.24 | 0.543 | 0.535 | 0.576 | 0.751 | 0.479 | 1.04 | 1.11 | 0.63 | 0.413 | 0.588 | 0.573 | 0.752 | 0.549
RSACTYLASHL [PLK3_Y615] | 0.468 | 0.519 | 0.909 | 0.534 | 0.4 | 0.792 | 0.564 | 0.509 | 0.575 | 0.703 | 0.417 | 0.433 | 0.641 | 0.641 | 1.04 | 0.498
MEYAKYGSLRG [RET_Y809_V804M] | 1.14 | 0.431 | 0.605 | 0.569 | 1.29 | 0.458 | 0.474 | 0.461 | 0.536 | 0.622 | 1.9 | 0.436 | 0.465 | 0.484 | 0.703 | 0.607
QGIPWYHSQSP [FOXF1_Y331_R330W] | 0.46 | 0.533 | 0.642 | 0.435 | 0.547 | 0.441 | 0.633 | 0.571 | 0.977 | 0.645 | 0.601 | 0.517 | 0.503 | 1.15 | 1.43 | 1.14
RHLLRYLSWTV [CLCNKB_Y93_S88R] | 0.507 | 0.594 | 1.29 | 0.712 | 0.614 | 0.521 | 0.969 | 0.532 | 0.982 | 0.883 | 0.516 | 0.379 | 0.591 | 1.02 | 1.55 | 1.05
VASSLYDILAR [GLB1_Y294] | 1.77 | 1.96 | 1.05 | 1.16 | 8.2 | 0.557 | 0.763 | 0.37 | 1.24 | 1.02 | 2.84 | 8.38 | 1.01 | 0.78 | 0.567 | 0.67
ITKNPYDPPGR | 0.432 | 0.437 | 0.766 | 0.457 | 0.454 | 0.645 | 0.556 | 0.427 | 0.662 | 0.657 | 0.433 | 0.424 | 0.428 | 0.513 | 0.868 | 0.622
RRIHSYRRHLW [VHL_Y112_G114R] | 0.65 | 0.529 | 0.699 | 0.725 | 0.746 | 0.718 | 0.699 | 0.868 | 0.633 | 0.735 | 0.584 | 0.707 | 0.82 | 0.536 | 0.918 | 0.678
SVTCTYSRALN [TP53_Y126_P128R] | 0.429 | 0.5 | 1.28 | 0.626 | 0.523 | 0.796 | 0.916 | 0.461 | 1.07 | 1.09 | 0.494 | 0.401 | 0.602 | 0.46 | 0.62 | 0.596
IEPCIYIPEDD [XPNPEP3_Y455_G453C] | 0.563 | 0.6 | 1.47 | 0.648 | 0.696 | 0.87 | 0.862 | 0.738 | 1.25 | 1.23 | 0.513 | 0.428 | 0.603 | 0.719 | 1.2 | 0.821
GLAKEYIDPET [CSNK1G2_Y195] | 0.494 | 0.509 | 0.941 | 0.527 | 0.449 | 0.604 | 0.592 | 0.544 | 0.904 | 0.743 | 0.454 | 0.4 | 0.462 | 0.448 | 0.942 | 0.967
NPQKSYFICLF [WAS_Y83_R86C_YF] | 0.39 | 0.496 | 1.27 | 0.525 | 0.448 | 0.757 | 1 | 0.632 | 1.13 | 1.1 | 0.504 | 0.43 | 0.523 | 0.602 | 0.988 | 1.03
TRLAQYDSNSK [BMX_Y216_S212R] | 0.44 | 0.445 | 0.684 | 0.399 | 0.42 | 0.41 | 0.776 | 0.527 | 0.811 | 0.713 | 0.643 | 0.682 | 0.402 | 0.637 | 0.962 | 0.829
